The text below walks through data of publication PMC7060258.

Assay [1] addresses recombinant HCIQ2c1 Kunitz-type peptide from Heteractis crispa (Heteractis crispa). Kind of assay: SPR; Biacore 3000; peptides covalently immobilised on a CM4 chip (970 RU rHCIQ2c1, 460 RU rHCIQ4c7); proteinases 1 nM to 5 μM flowed over; 25 °C; HBS: 0.15 M NaCl, 0.01 M HEPES, pH 7.4. (SPR reads the build-up and loss of mass on a sensor chip optically.)
The target is the same in assay [2]. Put plainly: SPR; rHCIQ2c1 immobilised on a CM4 chip; temperature range of 10–40 °С at an interval of 5 °С; enthalpy from the temperature dependence of ΔG (Van't Hoff diagram).

Sequence of recombinant HCIQ2c1 Kunitz-type peptide from Heteractis crispa (Heteractis crispa) (A0A6B7FBD3 28-85): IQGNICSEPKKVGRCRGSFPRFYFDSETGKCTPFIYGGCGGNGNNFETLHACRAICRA

“cathepsin G (from UniProt P08311 21-244) (enzyme)”: in assay [1], the Ka was found to be 3.58e+09 M⁻¹; the Kd (as a rule, the constant that tells how readily two partners part at equilibrium) is 0.279 nM; the koff (in general, the first-order rate constant of dissociation) is 0.000359 s⁻¹; the kon (usually the rate constant with which the complex forms) worked out at 1.29e+06 M⁻¹ s⁻¹.
For the substance α-chymotrypsin (enzyme), the dH in assay [2] was 4.68 kcal/mol. Also, in assay [1], the Ka is 1.03e+07 M⁻¹, the Kd stood at 97.4 nM, the koff is 0.00749 s⁻¹ and the kon is 76900 M⁻¹ s⁻¹.
